Assay results published in patent US20260209362A1 (VIB VZW, published 2026).

T1: biotinylated recombinant human IL-12Rβ2 (produced in-house) (human, UniProt Q99665 24-622, random biotinylated)
T1 construct: also called hIL-12RB2; hIL12RB2
T1 sequence: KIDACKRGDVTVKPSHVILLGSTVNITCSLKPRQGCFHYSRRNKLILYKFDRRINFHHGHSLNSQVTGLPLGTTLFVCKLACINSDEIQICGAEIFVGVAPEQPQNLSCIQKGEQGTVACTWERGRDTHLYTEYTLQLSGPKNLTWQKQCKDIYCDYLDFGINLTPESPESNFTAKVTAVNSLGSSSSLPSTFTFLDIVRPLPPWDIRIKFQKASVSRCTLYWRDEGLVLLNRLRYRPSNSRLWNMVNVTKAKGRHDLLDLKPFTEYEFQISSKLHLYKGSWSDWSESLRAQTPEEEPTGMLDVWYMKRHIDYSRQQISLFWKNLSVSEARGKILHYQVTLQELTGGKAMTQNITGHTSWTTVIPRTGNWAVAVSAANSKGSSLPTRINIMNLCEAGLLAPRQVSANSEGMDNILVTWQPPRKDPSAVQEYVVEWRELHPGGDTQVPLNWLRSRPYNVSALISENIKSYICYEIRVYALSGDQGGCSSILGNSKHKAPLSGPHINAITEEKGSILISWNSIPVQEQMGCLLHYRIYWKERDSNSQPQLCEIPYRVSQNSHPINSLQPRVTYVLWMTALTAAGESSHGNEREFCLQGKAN

T2: human IL-12Rβ2 expressed on cells (human, UniProt Q99665 24-862)
T2 construct: HEK293T cells transiently transfected with a human IL-12Rβ2 plasmid (Genscript OHu21785); also called hIL-12RB2
T2 sequence: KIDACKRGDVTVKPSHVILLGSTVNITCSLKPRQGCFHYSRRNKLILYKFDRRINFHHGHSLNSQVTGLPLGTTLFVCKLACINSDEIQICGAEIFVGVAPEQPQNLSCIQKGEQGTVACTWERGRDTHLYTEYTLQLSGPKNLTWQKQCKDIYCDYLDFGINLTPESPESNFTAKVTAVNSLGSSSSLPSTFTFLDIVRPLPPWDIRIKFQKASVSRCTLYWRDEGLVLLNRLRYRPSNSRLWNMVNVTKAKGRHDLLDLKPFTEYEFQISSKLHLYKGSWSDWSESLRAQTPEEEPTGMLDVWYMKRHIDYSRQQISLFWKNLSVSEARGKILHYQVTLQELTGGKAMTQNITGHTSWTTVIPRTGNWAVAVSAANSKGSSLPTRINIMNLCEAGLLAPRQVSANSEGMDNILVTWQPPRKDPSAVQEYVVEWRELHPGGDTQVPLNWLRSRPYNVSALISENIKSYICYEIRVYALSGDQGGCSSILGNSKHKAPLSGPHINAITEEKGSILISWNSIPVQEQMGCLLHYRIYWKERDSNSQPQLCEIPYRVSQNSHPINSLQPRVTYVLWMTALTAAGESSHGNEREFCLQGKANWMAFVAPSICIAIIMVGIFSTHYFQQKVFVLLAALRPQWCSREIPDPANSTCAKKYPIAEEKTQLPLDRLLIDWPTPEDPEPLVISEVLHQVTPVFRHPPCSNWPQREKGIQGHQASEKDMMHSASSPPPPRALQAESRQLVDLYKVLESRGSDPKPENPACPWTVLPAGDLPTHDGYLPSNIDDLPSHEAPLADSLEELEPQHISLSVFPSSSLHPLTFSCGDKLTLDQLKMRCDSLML

T3: biotinylated recombinant mouse IL-12Rβ2 (produced in-house) (mouse, UniProt P97378 24-637, random biotinylated)
T3 construct: also called mIL-12RB2; mIL12RB2
T3 sequence: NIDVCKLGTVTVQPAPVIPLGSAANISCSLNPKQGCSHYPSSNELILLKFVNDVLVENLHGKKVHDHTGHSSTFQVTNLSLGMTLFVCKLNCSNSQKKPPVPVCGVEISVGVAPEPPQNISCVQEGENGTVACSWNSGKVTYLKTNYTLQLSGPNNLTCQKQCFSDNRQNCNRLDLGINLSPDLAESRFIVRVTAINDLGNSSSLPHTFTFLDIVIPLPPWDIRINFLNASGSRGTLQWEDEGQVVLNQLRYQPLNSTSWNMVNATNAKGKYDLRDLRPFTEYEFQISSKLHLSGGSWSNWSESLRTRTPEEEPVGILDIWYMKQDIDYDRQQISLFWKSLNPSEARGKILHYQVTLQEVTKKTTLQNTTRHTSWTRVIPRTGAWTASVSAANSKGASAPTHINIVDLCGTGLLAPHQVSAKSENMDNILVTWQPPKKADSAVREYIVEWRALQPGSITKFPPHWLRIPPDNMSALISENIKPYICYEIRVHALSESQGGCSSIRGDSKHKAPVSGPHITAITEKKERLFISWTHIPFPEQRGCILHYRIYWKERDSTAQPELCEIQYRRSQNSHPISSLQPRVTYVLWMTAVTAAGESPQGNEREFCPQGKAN

B1: anti-IL-12Rβ2 VHH clone 3CRHS128 (VHH, not shown: small tags and cut ends)
VHH: QVQLQESGGGLVQPGGSLRLSCAASGFTFSTSGMHWFRQAPGKGLEWVSSIGATVDNSYYASSVKGRFTISRDNAKNTLYLLMNSLKSEDTAVYYCSKDPTGSSRGQGTQVTVSS
notes: tested as periplasmic extract; also called SCRHS128
B2: anti-IL-12Rβ2 VHH clone 3CRH5 (VHH, not shown: small tags and cut ends)
VHH: QVQLQESGGGLVQAGGSLVLSCAASGSAALIFLMSWYRQAPGKQRELVAEVSRGGSTTYADSVEGRFTISRDNAKNIVDLQMNSLKPEDTAVYYCKADQNYGDSLRSSWGQGTQVTVSS
notes: tested as periplasmic extract; also called 3CRHS
B3: anti-IL-12Rβ2 VHH clone 3CAHS124 (VHH, not shown: small tags and cut ends)
VHH: QVQLQESGGGLVQPGGSLRLSCAASGRTINAYIMGWFRQAPGKEREFVAAVSGSGGSTYYADSVKGRFTISRDNAKNTVNLQMDNLRSEDTDVYYCAATYESVYLQNPGQYDYWGQGTQVTVSS
notes: tested as periplasmic extract
B4: anti-IL-12Rβ2 VHH clone 3CAHS142 (VHH, not shown: small tags and cut ends)
VHH: QVQLQESGGGLVQAGESLTLSCIASGVIKDYAMGWFRQAPGKEREFVAAISWSGVSIYYADSVKGRFTISRDNAKNTVYLQMNSLEPEDTAVYYCAGTEGAYTVAGGSTFGYDMDYWGKGTQVTVSS
notes: tested as periplasmic extract
B5: anti-IL-12Rβ2 VHH clone 3CRHS163 (VHH, not shown: small tags and cut ends)
VHH: QVQLQESGGGLVQPGGSLRLSCTASGFAFSTYWMYWIRQSPEKGFEWVSVVNTGGDITYYADSVKGRFTISRDNAKNTLYLQMNSLKPEDTALYYCARDRTTMSYTRTYYRGGQGTQVTVSS
notes: tested as periplasmic extract
B6: anti-IL-12Rβ2 VHH clone 3CRHS106 (VHH, not shown: small tags and cut ends)
VHH: QVQLQESGGGLVQPGGSLRLSCKASGFTFSTYAMSWVRQAPGKGLEWVSAVNSGGLSTDYADSVEGRFTISRDDAKNMLFLQMNSLKPEDTARYYCAKYEDCSDYMCHRDRAGYWGQGTQVTVSS
notes: tested as periplasmic extract
B7: anti-IL-12Rβ2 VHH clone 3CRH25 (VHH, not shown: small tags and cut ends)
VHH: QVQLQESGGGLVQAGDSLRLSCTASGHTFSRYTTIGWFRQAPGKDREFVAAIRWSGDITDYADAVKGRFTISRDNVKNTVYLQMNSLNPEDTAVYYCARGYSEYGVLSRNRGLYAYWGQGTQVTVSS
notes: tested as periplasmic extract
B8: anti-IL-12Rβ2 VHH clone 3CAHS102 (VHH, not shown: small tags and cut ends)
VHH: QVQLQESGGGLVQPGGSLRLSCAASGSILRINLMGWYRQVPGKQRELVAEMSTGGSTTYVDSVEGRFTISRDNAKNTVYLQMNSLKPEDTAVYYCNAKAWQLGRLENDDWGQGTQVTVSS
notes: tested as periplasmic extract
B9: anti-IL-12Rβ2 VHH clone 3CAHS171 (VHH, not shown: small tags and cut ends)
VHH: QVQLQESGGGLVQPGGSLRLTCVASGFPFSTHAMSWVRQPPGKGREWISAINSGGDSTDYADSVMGRFTISRDNAKNTVYLQMNSLKSEDTAAYYCAKYEDCSDYDCSSRASWGQGTQVTVSS
notes: tested as periplasmic extract; also called 3CANS171

Tests used:
[1] = target: T1, biotinylated recombinant human IL-12Rβ2 …; assay: BLI (Octet), P.E. VHH on immobilised biotinylated hIL-12RB2, 1:1 model
[2] = target: T1, biotinylated recombinant human IL-12Rβ2 …; assay: ELISA, P.E. VHH on biotinylated hIL-12RB2, signal ratio to control well
[3] = target: T2, human IL-12Rβ2 expressed on cells; assay: flow cytometry, P.E. VHH on HEK293T cells transiently expressing hIL-12RB2
[4] = target: T1, biotinylated recombinant human IL-12Rβ2 …; assay: BLI (Octet), P.E. VHH on immobilised biotinylated hIL-12RB2
[5] = target: T3, biotinylated recombinant mouse IL-12Rβ2 …; assay: ELISA, P.E. VHH on biotinylated mIL-12RB2, signal ratio to control well
[6] = target: T3, biotinylated recombinant mouse IL-12Rβ2 …; assay: ELISA, P.E. VHH on biotinylated mIL-12RB2

Row | Binder | koff [1] [s⁻¹] | ELISA hIL12RB2/control [2] | dMFI [3] | Response [4] | ELISA mIL12RB2/control [5] | binding result [6]
1 | B1 | 0.00274 | 3.65 | 1380 | 0.294 | 0.98 | no binding
2 | B2 | 0.00337 | 8.64 | 735 | 0.491 | 0.81 | no binding
3 | B3 | 0.00324 | 5.67 | 1100 | 0.293 | 1 | no binding
4 | B4 | 0.00324 | 4.98 | 812 | 0.352 | 1.07 | no binding
5 | B5 | 0.00302 | 3.58 | 1050 | 0.339 | 0.93 | no binding
6 | B6 | 0.00355 | 10.2 | 1010 | 0.297 | 1.03 | no binding
7 | B7 | 0.00205 | 5.16 | 520 | 0.523 | 1.04 | no binding
8 | B8 | 0.00267 | 3.54 | 994 | 0.323 | 1.02 | no binding
9 | B9 | 0.00431 | 3.27 | 1180 | 0.195 | 0.96 | no binding
